Source: the supplement of paper PMC9112550, “Optimization of the antimicrobial peptide Bac7 by deep mutational scanning” (BMC Biology, 2022)

What follows are sequences tested on Escherichia coli TOP10 (assay: shrunken log2 fold change of peptide-encoding DNA abundance (4.5 h post-induction vs induction); higher = less antimicrobial activity (less host growth inhibition)). Settings: time post-induction: 4.5 h; library: site-saturation at positions 5, 18, 19, 20.
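Also: peptides expressed intracellularly from a pBAD plasmid library in pooled LB shake-flask culture, induced with 0.3% L-arabinose, DNA abundance read by NGS, three biological replicates, DESeq2 with apeglm shrinkage.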

Row | Sequence | shrunken log2 fold change
1 | RRIRYRPPRLPRPRPRPNMEPRP | -0.618
2 | RRIRYRPPRLPRPRPRPNMLPRP | -1.22
3 | RRIRYRPPRLPRPRPRPNNFPRP | -0.418
4 | RRIRYRPPRLPRPRPRPNNTPRP | -1.32
5 | RRIRYRPPRLPRPRPRPNPVPRP | 0.000723
6 | RRIRYRPPRLPRPRPRPNQKPRP | -0.0988
7 | RRIRYRPPRLPRPRPRPNRKPRP | -0.284
8 | RRIRYRPPRLPRPRPRPNSEPRP | -0.589
9 | RRIRYRPPRLPRPRPRPNSKPRP | -0.875
10 | RRIRYRPPRLPRPRPRPNTKPRP | -0.0891
11 | RRIRYRPPRLPRPRPRPNTTPRP | -0.114
12 | RRIRYRPPRLPRPRPRPNVSPRP | -0.0178
13 | RRIRYRPPRLPRPRPRPNYGPRP | -0.0594
14 | RRIRYRPPRLPRPRPRPNYLPRP | -0.161
15 | RRIRYRPPRLPRPRPRPPAEPRP | 0.569
16 | RRIRYRPPRLPRPRPRPPATPRP | 0.407
17 | RRIRYRPPRLPRPRPRPPAVPRP | -0.143
18 | RRIRYRPPRLPRPRPRPPEMPRP | 0.123
19 | RRIRYRPPRLPRPRPRPPEVPRP | -0.142
20 | RRIRYRPPRLPRPRPRPPFQPRP | -0.22
21 | RRIRYRPPRLPRPRPRPPINPRP | -0.378
22 | RRIRYRPPRLPRPRPRPPKHPRP | -0.165
23 | RRIRYRPPRLPRPRPRPPKKPRP | -0.0754
24 | RRIRYRPPRLPRPRPRPPKLPRP | -0.172
25 | RRIRYRPPRLPRPRPRPPLEPRP | 0.119

Row | Sequence | shrunken log2 fold change
26 | RRIRYRPPRLPRPRPRPPLFPRP | -0.0411
27 | RRIRYRPPRLPRPRPRPPMFPRP | -0.806
28 | RRIRYRPPRLPRPRPRPPMHPRP | -0.418
29 | RRIRYRPPRLPRPRPRPPMLPRP | -0.492
30 | RRIRYRPPRLPRPRPRPPMNPRP | -0.728
31 | RRIRYRPPRLPRPRPRPPMVPRP | -0.35
32 | RRIRYRPPRLPRPRPRPPNFPRP | 0.0401
33 | RRIRYRPPRLPRPRPRPPQAPRP | 0.114
34 | RRIRYRPPRLPRPRPRPPQYPRP | -0.795
35 | RRIRYRPPRLPRPRPRPPRFPRP | 0.0549
36 | RRIRYRPPRLPRPRPRPPRRPRP | 0.261
37 | RRIRYRPPRLPRPRPRPPSDPRP | -0.185
38 | RRIRYRPPRLPRPRPRPPSLPRP | 0.289
39 | RRIRYRPPRLPRPRPRPPTVPRP | -0.146
40 | RRIRYRPPRLPRPRPRPPWIPRP | -0.447
41 | RRIRYRPPRLPRPRPRPQAMPRP | -0.418
42 | RRIRYRPPRLPRPRPRPQATPRP | -0.108
43 | RRIRYRPPRLPRPRPRPQCVPRP | -0.127
44 | RRIRYRPPRLPRPRPRPQDVPRP | -0.103
45 | RRIRYRPPRLPRPRPRPQDWPRP | -0.258
46 | RRIRYRPPRLPRPRPRPQEAPRP | -0.029
47 | RRIRYRPPRLPRPRPRPQEEPRP | -0.0969
48 | RRIRYRPPRLPRPRPRPQEFPRP | -0.00973
49 | RRIRYRPPRLPRPRPRPQEVPRP | 0.013
50 | RRIRYRPPRLPRPRPRPQGVPRP | -0.464

Row | Sequence | shrunken log2 fold change
51 | RRIRYRPPRLPRPRPRPQHAPRP | -0.313
52 | RRIRYRPPRLPRPRPRPQHTPRP | -0.671
53 | RRIRYRPPRLPRPRPRPQKRPRP | -0.0426
54 | RRIRYRPPRLPRPRPRPQMWPRP | -0.213
55 | RRIRYRPPRLPRPRPRPQPRPRP | 0.463
56 | RRIRYRPPRLPRPRPRPQQFPRP | -0.397
57 | RRIRYRPPRLPRPRPRPQSQPRP | -0.133
58 | RRIRYRPPRLPRPRPRPQTFPRP | -0.459
59 | RRIRYRPPRLPRPRPRPQVCPRP | -0.00133
60 | RRIRYRPPRLPRPRPRPQVWPRP | -0.0375
61 | RRIRYRPPRLPRPRPRPRADPRP | 0.0349
62 | RRIRYRPPRLPRPRPRPRAKPRP | 0.404
63 | RRIRYRPPRLPRPRPRPRALPRP | 0.0114
64 | RRIRYRPPRLPRPRPRPRARPRP | 2.17
65 | RRIRYRPPRLPRPRPRPRATPRP | -0.0516
66 | RRIRYRPPRLPRPRPRPRCNPRP | -0.552
67 | RRIRYRPPRLPRPRPRPRECPRP | -0.154
68 | RRIRYRPPRLPRPRPRPRESPRP | 0.0662
69 | RRIRYRPPRLPRPRPRPRFQPRP | -0.201
70 | RRIRYRPPRLPRPRPRPRGNPRP | -0.0138
71 | RRIRYRPPRLPRPRPRPRHCPRP | -0.251
72 | RRIRYRPPRLPRPRPRPRHVPRP | -0.0478
73 | RRIRYRPPRLPRPRPRPRIAPRP | 0.00898
74 | RRIRYRPPRLPRPRPRPRIGPRP | -0.471
75 | RRIRYRPPRLPRPRPRPRIWPRP | -0.0174

Row | Sequence | shrunken log2 fold change
76 | RRIRYRPPRLPRPRPRPRLNPRP | -0.313
77 | RRIRYRPPRLPRPRPRPRLPPRP | -0.0393
78 | RRIRYRPPRLPRPRPRPRQFPRP | -0.379
79 | RRIRYRPPRLPRPRPRPRSGPRP | -0.0667
80 | RRIRYRPPRLPRPRPRPRVDPRP | -0.531
81 | RRIRYRPPRLPRPRPRPRVTPRP | -0.286
82 | RRIRYRPPRLPRPRPRPSCMPRP | -0.947
83 | RRIRYRPPRLPRPRPRPSEDPRP | -0.123
84 | RRIRYRPPRLPRPRPRPSEGPRP | 0.0169
85 | RRIRYRPPRLPRPRPRPSELPRP | -0.0343
86 | RRIRYRPPRLPRPRPRPSFFPRP | -0.665
87 | RRIRYRPPRLPRPRPRPSFLPRP | -0.994
88 | RRIRYRPPRLPRPRPRPSFNPRP | -0.756
89 | RRIRYRPPRLPRPRPRPSFSPRP | -0.626
90 | RRIRYRPPRLPRPRPRPSGTPRP | -0.175
91 | RRIRYRPPRLPRPRPRPSHDPRP | -0.916
92 | RRIRYRPPRLPRPRPRPSIWPRP | -1.31
93 | RRIRYRPPRLPRPRPRPSMIPRP | -0.77
94 | RRIRYRPPRLPRPRPRPSNTPRP | -1.06
95 | RRIRYRPPRLPRPRPRPSPRPRP | 0.062
96 | RRIRYRPPRLPRPRPRPSQIPRP | -0.766
97 | RRIRYRPPRLPRPRPRPSRVPRP | -0.115
98 | RRIRYRPPRLPRPRPRPSWAPRP | -0.21
99 | RRIRYRPPRLPRPRPRPSWEPRP | -0.153
100 | RRIRYRPPRLPRPRPRPSWLPRP | -0.78

Row | Sequence | shrunken log2 fold change
101 | RRIRYRPPRLPRPRPRPSWTPRP | -1.11
102 | RRIRYRPPRLPRPRPRPSYWPRP | -0.716
103 | RRIRYRPPRLPRPRPRPTACPRP | -0.13
104 | RRIRYRPPRLPRPRPRPTEKPRP | -0.0336
105 | RRIRYRPPRLPRPRPRPTHSPRP | -0.698
106 | RRIRYRPPRLPRPRPRPTHTPRP | 0.049
107 | RRIRYRPPRLPRPRPRPTHVPRP | -0.27
108 | RRIRYRPPRLPRPRPRPTILPRP | -0.521
109 | RRIRYRPPRLPRPRPRPTKDPRP | -1.04
110 | RRIRYRPPRLPRPRPRPTKNPRP | -0.495
111 | RRIRYRPPRLPRPRPRPTLKPRP | -0.283
112 | RRIRYRPPRLPRPRPRPTMPPRP | -0.725
113 | RRIRYRPPRLPRPRPRPTMYPRP | -0.33
114 | RRIRYRPPRLPRPRPRPTNKPRP | -0.699
115 | RRIRYRPPRLPRPRPRPTNPPRP | -0.165
116 | RRIRYRPPRLPRPRPRPTPAPRP | 0.238
117 | RRIRYRPPRLPRPRPRPTPGPRP | -0.0705
118 | RRIRYRPPRLPRPRPRPTPLPRP | 0.0136
119 | RRIRYRPPRLPRPRPRPTPRPRP | 0.886
120 | RRIRYRPPRLPRPRPRPTPVPRP | -0.0457
121 | RRIRYRPPRLPRPRPRPTRFPRP | 0.0879
122 | RRIRYRPPRLPRPRPRPTRQPRP | -0.00287
123 | RRIRYRPPRLPRPRPRPTVKPRP | -0.428
124 | RRIRYRPPRLPRPRPRPTWPPRP | 0.183
125 | RRIRYRPPRLPRPRPRPTWSPRP | -0.58

Row | Sequence | shrunken log2 fold change
126 | RRIRYRPPRLPRPRPRPTYIPRP | -0.58
127 | RRIRYRPPRLPRPRPRPTYMPRP | -1
128 | RRIRYRPPRLPRPRPRPVCEPRP | 0.0427
129 | RRIRYRPPRLPRPRPRPVCFPRP | -0.674
130 | RRIRYRPPRLPRPRPRPVCGPRP | -0.463
131 | RRIRYRPPRLPRPRPRPVFKPRP | -0.238
132 | RRIRYRPPRLPRPRPRPVFWPRP | 0.11
133 | RRIRYRPPRLPRPRPRPVHNPRP | -0.353
134 | RRIRYRPPRLPRPRPRPVKDPRP | -0.0122
135 | RRIRYRPPRLPRPRPRPVLFPRP | -0.598
136 | RRIRYRPPRLPRPRPRPVLHPRP | -0.5
137 | RRIRYRPPRLPRPRPRPVNSPRP | -0.0185
138 | RRIRYRPPRLPRPRPRPVPPPRP | 0.208
139 | RRIRYRPPRLPRPRPRPVQRPRP | -0.0294
140 | RRIRYRPPRLPRPRPRPVQWPRP | -0.126
141 | RRIRYRPPRLPRPRPRPVRHPRP | -0.245
142 | RRIRYRPPRLPRPRPRPVRMPRP | -0.246
143 | RRIRYRPPRLPRPRPRPVRWPRP | 0.164
144 | RRIRYRPPRLPRPRPRPVSEPRP | -0.00125
145 | RRIRYRPPRLPRPRPRPVTNPRP | -0.015
146 | RRIRYRPPRLPRPRPRPVVAPRP | -0.32
147 | RRIRYRPPRLPRPRPRPVVTPRP | -0.351
148 | RRIRYRPPRLPRPRPRPVWNPRP | -0.136
149 | RRIRYRPPRLPRPRPRPWAIPRP | 0.0155
150 | RRIRYRPPRLPRPRPRPWCWPRP | -0.153
